# From the DeepSol protein solubility set
# Assay: soluble on expression in E. coli; label from the status in PepcDB or PDB records
row,Sequence,soluble on expression in E. coli
1,MHDVPPFSGAKLALFYGDHLVVYKRDEKPGIPFPGYWDFPGGGREGLETPAECALRELEEEFSIRLEEPRIEWQRQYPSTSGSAPFAYFLVARLEDREFEAIRFGDEGQYWRLMEVDAYLAHAMAVPYLQSRLGDYLRERRRIGE,soluble
2,MVKERRTELVEGFRHSVPYINAHRGKTFVIMLGGEAIEHENFSNIVNDIGLLHSLGIRLVVVYGARPQIDANLAEHHHEPVYHKQTRVTDAKTLELVKQAAGMLQLEITARLSMSLNNTPLQGAHINVVSGNFIIAQPLGVDDGVDYCHSGRIRRIDEEAIHRQLDSGAIVLMGPVAVSVTGESFNLTSEEIATQLAIKLKAEKMIGFCSSQGVYNQAGEIVSELFPNEAQARVEELEADEDYNSGTVRFLRGAVKACRSGVRRCHLISYQENGALLQELFSRDGIGTQIVMESAEQIRRATINDIGGILELISPLEQQGILVRRSREQLEMEIDKFTIIQRDNTTIACAALYPFPEEKIGEMACVAVHPDYRSSSRGEVLLERIAAQARQMGLSKLFVLTTRSIHWFQERGFTPVDIDLLPESKKQMYNYQRRSKVLMADLA,not soluble
3,MSLNPVNGAILSIEISHPNGFEIDENISAYHDAEYYMDRIFDSGNYDSLIVLTSIKILSQHWEIDNDMVVTSQSIRQLAIDTINSKAESGTIKNYWFKLQSLCEEFKNLSQETLSLSVFDNQVLTLNVNGHGIFRKSAFFESFANQKLNSADGKLMLIFNKFETFISRKSYHKLHEELLQLRKISANEITNLFTKHIEGKISTNEIQTILKDLEQIPGIVEIVKSLIGSSGFELIVDANSISSKELGAFHKISTVMIFKNIMETHKTLLLDLVVLFLTCETNDQIVEFVNQIRATLVQYDVMEVVFTTCLNKGEVETKNMGQVQNSIFWSSVVATHSQLKRLIESLQLNDGYEYFYNNVLPDDYLVDVVIELINNKEYFFLQKKFLTKLNQEGHHHHHH,not soluble
4,MGKISIVGLGPGDYSLISQGVLESLINSPKVFFRTEKHPIIDKLKETIQYTSLDYFYEKEENFDNVYLKISEFIIEESAKGDLVYAVPGHPRVAEKTVSIIERLANEKHIAVEILPSMSFVDAMFNYLAIDPSEGFKLVDAFEIENSYIDLDTSMIITQVYDKFIASNVKLKLMEHYDYNQEVCIVNGAGVKDLESKKFIKLCELDRNENFFDYLTSLYIPKSSKKMYNTVHDLEIIVNTLRSPSGCEWDKKQTHQSLKNSVIEEAYELCNAIDNNDIDEMVEELGDVLLQVIFHCQIGNEEGYFDLKEVVNGICKKLIHRHPHIFSGAKLDMSKFEKTWEELKKEEKGESTITDGLRRIPKHLPALMKASKVQHKAALVGFDWDNVEDVFKKIEEEYQELLDEHRVGNIKYIKEELGDLLFSIVNLARFLDIDSGEALNCTTEKFINRFDFIEKSAMNLNKKLEDMTLEEMDEFWNQAKKQ,not soluble
5,MGSDKIHHHHHHMSTNLRRIQKIKGGSYIVSLPSDWVRENGLDVSREVEVFESSGIIKIRPKKDFNFERIIDFTDEETAEYLTSVYYMQGMTKITIQSKDVISRDVKDKIKMLQLELPGLNLKEESFNSITFEVDEEILKVQDSFFDFSNKALSILKDVTKIIETPREDMKQDLTSRCLALNSDYFKLIRSIALTVQRDDKYKLDVPVKDIILYAVASRDLGRFITHTRLLIGNIKQEDMKMRDQVLLLINTMENIITMFKTEDINMASRIRKNAHEILESVKSTSEANKELERMTGYALALMDDAVHKAVHL,not soluble
6,MNIIDFRFRPNTEAILKGISSNPAFKGMCQSIDFNKMLPQTLEEVVEELDRHHVVKAVISGRDCETTYGAKSNNPSVIEFCHKFPDKFIGFAGLDPHKGMAALAEITHAVHEEGIKGAAIDPYLARIYVNDAKYYPIYAKCCELGIPLIIATGPGTLVPNAVIDHVAPRYIDFVARDFPELKIIASHGGYPWVNEMITVAQRNANVYLELSEYEFFPQSSAYIEAANSILSDKIMYASAHPFVDFKLALKNYEQLPLKPEVREKVMYKNAAKVLGLSDGTFSASKAMDAQEVQMIIENVIAQLSQRGLLANR,not soluble
7,LDDKTGLGTILNPQATYFDYQATQSGAGSFNYTVKGDNLTATSQIVLAVNAGETPGNNIPVADNITLSTFNNVDAIIDLSAYITDADGDTLRINKLVSASNRFTLNGFQVTFAPDGFVGVDQAVYSVDDGRGGYALAYIVVTSNDANPPAPNTAPVAKDDSLSMDVAKQSVLNINLSGLISDADGDSLKVVTLYSHNDRAVLKENASVDYTPGNFRGVDQFTYLVSDGKGGYDLGTVTVTVGDSTPPTPPTPSLVAYQQAFVLDVDQLQTIDVTQSVTSEHLDAWSLTTVQDSTNLGVVSAKTATTFNYLAQTPGVAQIDYSVQGGSLSANSTITVAINAPVTPDNHRPEAQDTQLETLNNASKTIDLQGKISDVDGDTLSITLHGSARFSLNGTQVTFTPNGFVGLDQAVYSVEDGKGGYALANIVAISEDANPPVPNMAPTANDAQFTLDVAKNVTFNIDLVAQRLIADADGDALSIAHIYTANNRATKQGATGITYTPGAFRGVDQFTYVITDGKDGYAINAITVVVNDSTPANKIPTAGPVTAKMLHNDPAITISVNSAVSDADGDTLKIVSISGALGQASINPANALEMLYEPKGFVGTDRFVYVVSDDNGGYAMGEVTVTVTDSNPTAPVANTVQENTLLDTPINIDLSAYISDKETETANLVISNVTNATSPAVATLSGQTVIYTPNGFTGNDILTYTVTDGRH,not soluble
8,GERLTIEDGLYLYETSDLLGVAQLANKVNSEKNGDHVYFIENMYINPTNVCEANCSFCGFKRKPGQEGAYTMDSETLLRYVEERWNDNIREFHIVGGHNTDVPFDYYLDTIRTLKKNFPQVTVKAYTGAEIEFFSRLAGISMKEVLEELIKAGLDTLPGGGAEILTERYRAKMSPDKASTDQWLEAHEIAHGLGLKTHATMLYGSIESNEERLIHMDRVRQLQDKTNGYMVFIPLAMQPRSVKAGLKRRTSAFDDMRTIAISRLMLDNIDHIKAYWINIGVQLTQMALTFGSDDIHGTLIEERISHSVGALTSQGITRDELIHLIKSANKTPVER,not soluble
9,MATLFIADLHLQTEEPAIVAGFLRFLAVEARQADALYILGDLFEAWIGDDDPNPLHREMAVAIKSLVDSGVPCFFIHGNRDFLIGKRFARESGMILLPQEKVLDLYGRNVLIMHGDTLCTDDAGYQAFRAKVHNPWVQRLFLTLPLFIRRRIAARMRAGSKAANSSKSLDIMDVNAQTVVAEMEKHRVQWLIHGHTHRPAVHELSANDQPAFRVVLGAWHHEGSMVKVTPDNVELIAFPLLEHHHHHH,not soluble
10,MAHHHHHHMDYCEEAYNKLIEFLSENKTEKMMESSLSSALAVALCYNHRIVNMYENMKGRIFLLDISNETYVYTNQYTQLMNIAYNAKRNNIIIDVFSLNCKIQLLEQICNITNGLYIDSSIFFNVNCTDNIEDVLTQTMIFWFLPSNNTRKYFSNTYLNDDTNIAVCSCHNKQVDIAYICSCCLAIYCSEKDEKTNKERTSCFVCKTRFTKALLRNKVVSDLDFSSI,not soluble
11,MIEIATSPATTTLVIAGDLDLAERDQFPEIAARVVGLRRQLLVIDMCRVTFMDSTGAAFLISLADSGRKRGGATVLRGCDDRDLFVLEVCGALELFRIDPDHACAPKTPATGVPAVEERPGRTR,not soluble
12,MPVVERTTFLAGYSPQQVLDFCLEGANFPKIFPERVTPLGGLDINDLRISVGRQFSFLHWMFGVIPAKWTVVIREVGDRHFVDEMLKGPLRAFRHEHRVEAAEGGTLYTDRVTYRAIGGAPLEWLMVNAYMARIFDARHRNMLRLLSLEHHHHHH,soluble
13,MDDIRKIERLAAASWPAYFQKSIGKWLLRANFGVTKRANSVWTSADMPEGDFQLEAELFYQSLGLPVCFHISNASPKGLDDALADSRYEKVDECFQMTALCRSIMSRTNDNSRFTYKWEQEPSSVWIDEFIQLEGFSPERHKGYKHIFERMPPCKTFFKMYDKESLTALGTVSVIDGYGGLSNIVVAEEHRGKGAGTQVIRVLTEWAKNNGAERMFLQVMKENLAAVSLYGKIGFSPISEHHYRIKRLEHHHHHH,not soluble
14,MGHHHHHHSHVSRHYCPTCCYPMNACLCSHLQQIKPQTQLLVLQHPSEVEHKKNSVRVLSLVIPDTQVYVGESEADFAALRAQLSRCQRPIYLVYPSEQSASVESQSICVDCVLLLIDGTWRKAFKILQLNPWLAQFPAVHLAQGYASRYKIRKSSRSDSLSTLEASAYMLKALDDGLDVSPLLAAFDAMVAMRLQAMPAEVRLRYD,not soluble
15,GPGSMVAPAQRTSVYVGDLPIDLPRPEEAINNLFSTVAPVVSVKVCRDMATQRSLGYGYVNFQTTADAEKVIDALNYTGIAPGRQIRVMFSIRDPLQRKSGMNNVFVKKLDTAINAKELQAAFSKCGRVLSCKVALDSAGNSKGYGFVQFETADGTKAALEMNGSKLGDSEVVVAPFVRRVDREAMAAKSFRNIYIKNITASATEADVKAIVEEFGKVDSLFLSEHARFPTKFALVAFEEHQAAVQAIAALNESEESGLTEKAVKLVVCRALSKSERDREKKKAASLYQNHGRNLYIKHLPDDITDDRLREIFEPFGKITSCAIMKEPNGTLKGFAFVCFEDKQHASAALRSLNGHPLEHSAKPLYVSHAEQKDMRIRLLQQRRAAMRHQSRMAPLMNTFPQQWPRHPFPHMVPPMMPPPPPPNMGMPQFMSGPMIRRPVMEPHLMQGEPMRPPNRYTQAREQYPPQQRQDGVDMNYLSTLSPEQQKNYLGELLYSRILPLESSNAAKITGMLLEMSREEIFEILADHFALLSKIQEANAVLQQHTGN,soluble
16,MGHHHHHHSHMQLVRDLLEVTSGLISDDIINMRNDLYQTPLHLAVITKQEDVVEDLLRAGADLSLLDRLGNSVLHLAAKEGHDKVLSILLKHKKAALLLDHPNGDGLNAIHLAMMSNSLPCLLLLVAAGADVNAQEQKSGRTALHLAVEHDNISLAGCLLLEGDAHVDSTTYDGTTPLHIAAGRGSTRLAALLKAAGADPLVENFEPLYDL,not soluble
17,MVARISVGKNLYGALAYNQNKVDEGGAKVLSAHLLRYPEDGRFRPDESVRQFLEWMPNHYRTEKPVIHISLNPHPDDVLTDGQLAEIGREYMQRLGYGNQPYLVFKHEDIGRHHIHIVSLRVDSEGRKVSDKFEYRRSKEITELLEQKYGLHPAEGRKKGEEWQLKPVDVAKGDIKRQIACTLKPLLELYSFRTMGELRALLSLYNIGVEEVKGEIGGRTYHGILYTALDGNGETAATPIKSSRLGRTAGAQQLDRKMRESAARIKSAPCRERLRPLVADALRQSVDERDFRDRLAKEQIDLVLRRNGTDRIYGVTFIDHRSRTVLNGSRLGKEFSANMLNGHFQEQPPNSLSPLLPPVPSAVASGNGEKIPGGLLSDMEPELNYVPRYPKLLKPDKKKRRRRYGRQDLEHHHHHH,soluble
18,MNYKSPVYNVTPIHYTKLQANNYNPNTVPATELKLLEKSIWEDGFTQPIVCYPLENSDKYEIIDGFHRYTIMQTSKRIREREKELLPVVILEKDTVNRIASTIRHNRARGFHNVELMSSIVGELADSGMSDSWIMKNIGMDANEILRLKQVSGLTHLFLDKEFSKASD,not soluble
19,MGSDKIHHHHHHQTPSPLGEWQYSAGVPLDKLFNPNPQTWQISVGAAATLQPRYDGSNQYRPMAGPTFDARYRDLWFVSTGEGIGVNVLRGPNWRATLSAGYDLGRREADDRGHLTGIGNINPAAVIKLSADYVISHAFPLVLRADVRRSVGGANGWVADLAAYMPLPGSSETFYWFAGPTVTFADSRYMNSWFGVNDAQAARSGHPRYAPSAGVKSFGGGMTLVWFVTKHWFVTADGAIEQLVGSAARSPLTQRSTNAVVDVSINYQF,not soluble
20,MGSDKIHHHHHHMLNRLRAFRERGWREVDAPTYAQAWQRFGGSVATHPLVVEQLAEMAGIPVRYLGWESAGELVAAIPTWGRHLALSKDVLKRRGKKGLYDLGNAELILPVAGDARIALRHAGRYLSALHERNIVTLRPQTEQLAFARAPEDFSKKFRYNQRREVRLVEEAGGQVRQADSFAPAEFAAIYLELFQRRWGFPATGAERMAEVFERLRELLRGSVLLLNDQPIAVQVLYRAEAPGWLSVEYINGGVDPQTREFSPGSVLSYLNTQAAWEDARALGKPLRYSFGRADREYKDRWCHPSPVFQV,not soluble
